Tested on: mNgR deletion mutants
Assay: AP-hNogo-A (1055-1120) binding to COS-7 cells transfected with other mNgR deletion mutants
Parameters: species or system mouse
Source text: The NgΔRNT construct encodes residues 58 to 473 of mNgR. The NgRANT construct was made by using the primers ΔLRR-NT5 (5′-[…]-3′) and NgR3X (5′-[…]-3′) to amplify a sequence from the wtNgR-pSecTag2Hygro plasmid. The amplified sequence was ligated into the XhoI/BamHI of pSecTag2.
The NgLRR-construct encodes residues 306 to 473 of mNgR. The NgLRR construct was made by using the primers, MycNgR305 (5′-[…]-3′) and NgR3X (above) to amplify a sequence from the from the wtNgR-pSecTag2Hygro plasmid. The amplified sequence was ligated into the XhoI/BamHI of pSecTag2.
The mNgR LLR deletions and NgRΔLRRCT deletion mutants were generated using ExSite™ PCR-based site-directed mutagenesis kit (Stratagene, La Jolla, Calif.). Generally, the primers described below were used to amplify a sequence from the wtNgR pSecTag2 plasmid. The ends of the amplified products were ligated together. The resulting constructs were transfected into COS-7 cells.
The NgRΔ1-2 construct encodes residues 1 to 56 and residues 106 to 473 of mNgR. The primers used for making the NgRΔ1-2 construct were DEL LRR (5′PO4) (5′-[…]-3′) and DEL LRR2 (5′-[…]-3′). […]
To determine whether mNgR or mNgR deletion mutants bound to hNogo-A (1055-1120), wtNgR or mNgR deletion mutants were transfected into COS-7 cells. […] AP-fusion protein was detected as previously described for AP-Sema3A (Takahashi et al., Nature Neurosci. 1:487-493, 1998).

B1: AP-Nogo: fusion protein of His6 tag, placental alkaline phosphatase (AP) and the 66 amino acid active domain of Nogo (protein)
chain: HHHHHHIIPVEEENPDFWNREAAEALGAAKKLQPAQTAAKNLIIFLGDGMGVSTVTAARILKGQKKDKLGPEIPLAMDRFPYVALSKTYNVDKHVPDSGATATAYLCGVKGNFQTIGLSAAARFNQCNTTRGNEVISVMNRAKKAGKSVGVVTTTRVQHASPAGTYAHTVNRNWYSDADVPASARQEGCQDIATQLISNMDIDVILGGGRKYMFRMGTPDPEYPDDYSQGGTRLDGKNLVQEWLAKRQGARYVWNRTELMQASLDPSVTHLMGLFEPGDMKYEIHRDSTLDPSLMEMTEAALRLLSRNPRGFFLFVEGGRIDHGHHESRAYRALTETIMFDDAIERAGQLTSEEDTLSLVTADHSHVFSFGGYPLRGSSIFGLAPGKARDRKAYTVLLYGNGPGYVLKDGARPDVTESESGSPEYRQQSAVPLDEETHAGEDVAVFARGPQAHLVHGVQEQTFIAHVMAFAACLEPYTACDLAPPAGTTDAAHPGRIYKGVIQAIQKSDEGHPFRAYLESEVAISEELVQKYSNSALGHVNCTIKELRRLFLVDDLVDSLK
  binding (in words): did not

Reference: patent US8394929B2, “Nogo receptor-mediated blockade of axonal growth” (Yale University, priority 2000, dated 2013)
